Measurements as given in the supplement of paper PMC9112550, “Optimization of the antimicrobial peptide Bac7 by deep mutational scanning” (BMC Biology, 2022).

Tested on: Escherichia coli TOP10
Experiment: shrunken log2 fold change of peptide-encoding DNA abundance (4.5 h post-induction vs induction); higher = less antimicrobial activity (less host growth inhibition)
Settings: time post-induction: 4.5 h; library: site-saturation at positions 5, 18, 19, 20
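Also: peptides expressed intracellularly from a pBAD plasmid library in pooled LB shake-flask culture, induced with 0.3% L-arabinose, DNA abundance read by NGS, three biological replicates, DESeq2 with apeglm shrinkage.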

Sequence | shrunken log2 fold change
RRIRIRPPRLPRPRPRPKEDPRP | -0.327
RRIRYRPPRLPRPRPRPQFYPRP | -1.86
RRIRCRPPRLPRPRPRPALMPRP | -0.011
RRIRDRPPRLPRPRPRPGLPPRP | 0.245
RRIRKRPPRLPRPRPRPDMKPRP | -0.0241
RRIRQRPPRLPRPRPRPHVLPRP | 0.0625
RRIRNRPPRLPRPRPRPCCWPRP | -0.0688
RRIRCRPPRLPRPRPRPDIGPRP | -0.293
RRIRNRPPRLPRPRPRPKLIPRP | -0.0332
RRIRERPPRLPRPRPRPFIPPRP | -0.481
RRIRYRPPRLPRPRPRPSYAPRP | -0.149
RRIRLRPPRLPRPRPRPMDFPRP | -0.0499
RRIRSRPPRLPRPRPRPLDGPRP | -0.365
RRIRCRPPRLPRPRPRPQYVPRP | -0.345
RRIRDRPPRLPRPRPRPGDYPRP | 0.0583
RRIRSRPPRLPRPRPRPHCSPRP | -0.686
RRIRGRPPRLPRPRPRPQRHPRP | 0.338
RRIRARPPRLPRPRPRPQLVPRP | 0.308
RRIRDRPPRLPRPRPRPRNKPRP | -0.014
RRIRERPPRLPRPRPRPTPDPRP | 0.116
RRIRCRPPRLPRPRPRPWPMPRP | 0.168
RRIRSRPPRLPRPRPRPRYCPRP | -0.483
RRIRCRPPRLPRPRPRPSCVPRP | -0.0959
RRIRDRPPRLPRPRPRPYEIPRP | -0.0176
RRIRHRPPRLPRPRPRPWVKPRP | -0.0135

Sequence | shrunken log2 fold change
RRIRNRPPRLPRPRPRPMMWPRP | -0.0283
RRIRDRPPRLPRPRPRPLHFPRP | -0.0881
RRIRDRPPRLPRPRPRPYHRPRP | 0.0231
RRIRGRPPRLPRPRPRPVQPPRP | 0.95
RRIRCRPPRLPRPRPRPLDEPRP | 0.151
RRIRCRPPRLPRPRPRPYDCPRP | -0.451
RRIRARPPRLPRPRPRPRMSPRP | -0.186
RRIRSRPPRLPRPRPRPEFCPRP | 0.132
RRIRNRPPRLPRPRPRPVFMPRP | -0.181
RRIRTRPPRLPRPRPRPSQNPRP | -0.00631
RRIRYRPPRLPRPRPRPVEIPRP | -0.00968
RRIRSRPPRLPRPRPRPGIRPRP | 0.694
RRIRMRPPRLPRPRPRPREAPRP | 1.82
RRIRIRPPRLPRPRPRPDVAPRP | -0.206
RRIRNRPPRLPRPRPRPFSNPRP | -0.214
RRIRRRPPRLPRPRPRPLMNPRP | 0.312
RRIRFRPPRLPRPRPRPFYYPRP | -0.777
RRIRWRPPRLPRPRPRPNPFPRP | 0.208
RRIRVRPPRLPRPRPRPCKQPRP | -0.148
RRIRNRPPRLPRPRPRPPIYPRP | -0.202
RRIRIRPPRLPRPRPRPKKQPRP | -0.194
RRIRVRPPRLPRPRPRPCAGPRP | -0.106
RRIRYRPPRLPRPRPRPKQEPRP | -0.017
RRIRIRPPRLPRPRPRPQMIPRP | -0.241
RRIRKRPPRLPRPRPRPQIYPRP | -0.159

Sequence | shrunken log2 fold change
RRIRPRPPRLPRPRPRPKVEPRP | 0.00158
RRIRLRPPRLPRPRPRPRYGPRP | -0.0186
RRIRWRPPRLPRPRPRPNKMPRP | 0.075
RRIRVRPPRLPRPRPRPCSQPRP | -0.0327
RRIRIRPPRLPRPRPRPSYFPRP | -0.83
RRIRDRPPRLPRPRPRPNCAPRP | -0.0166
RRIRCRPPRLPRPRPRPEQGPRP | -0.205
RRIRNRPPRLPRPRPRPMYLPRP | -0.251
RRIRKRPPRLPRPRPRPEGLPRP | 1.05
RRIRLRPPRLPRPRPRPISGPRP | -0.462
RRIRERPPRLPRPRPRPHRKPRP | -0.0945
RRIRARPPRLPRPRPRPLNSPRP | 0.0404
RRIRSRPPRLPRPRPRPEWKPRP | 0.14
RRIRPRPPRLPRPRPRPNSHPRP | -0.521
RRIRPRPPRLPRPRPRPSECPRP | -0.651
RRIRLRPPRLPRPRPRPFFRPRP | -0.0862
RRIRRRPPRLPRPRPRPRCSPRP | 0.152
RRIRERPPRLPRPRPRPYATPRP | -0.359
RRIRIRPPRLPRPRPRPGFNPRP | -0.135
RRIRRRPPRLPRPRPRPATHPRP | 0.434
RRIRNRPPRLPRPRPRPFKQPRP | -0.0135
RRIRSRPPRLPRPRPRPFRWPRP | 0.119
RRIRVRPPRLPRPRPRPNHLPRP | -0.694
RRIRSRPPRLPRPRPRPTRWPRP | 0.721
RRIRWRPPRLPRPRPRPNGQPRP | 0.158

Sequence | shrunken log2 fold change
RRIRQRPPRLPRPRPRPLIEPRP | -0.042
RRIRGRPPRLPRPRPRPIISPRP | 0.507
RRIRYRPPRLPRPRPRPAIQPRP | -0.316
RRIRYRPPRLPRPRPRPCVKPRP | -0.0312
RRIRCRPPRLPRPRPRPTYTPRP | -0.793
RRIRIRPPRLPRPRPRPNNVPRP | -0.7
RRIRPRPPRLPRPRPRPVVVPRP | -0.0997
RRIRGRPPRLPRPRPRPVPMPRP | 1.17
RRIRYRPPRLPRPRPRPQNAPRP | -0.369
RRIRKRPPRLPRPRPRPQKPPRP | 0.00856
RRIRARPPRLPRPRPRPDGNPRP | -0.0344
RRIRSRPPRLPRPRPRPFCCPRP | -0.14
RRIRIRPPRLPRPRPRPLCEPRP | -0.332
RRIRHRPPRLPRPRPRPLCKPRP | 0.0111
RRIRMRPPRLPRPRPRPCNMPRP | -0.126
RRIRLRPPRLPRPRPRPNTYPRP | -0.522
RRIRERPPRLPRPRPRPISCPRP | -0.705
RRIRSRPPRLPRPRPRPRCYPRP | -0.107
RRIRMRPPRLPRPRPRPQGFPRP | -0.00865
RRIRNRPPRLPRPRPRPPDAPRP | 0.0157
RRIRIRPPRLPRPRPRPIRTPRP | -0.288
RRIRQRPPRLPRPRPRPDIWPRP | -0.214
RRIRIRPPRLPRPRPRPFKFPRP | -0.702
RRIRDRPPRLPRPRPRPNSPPRP | -0.0573
RRIRQRPPRLPRPRPRPDTRPRP | 0.00157

Sequence | shrunken log2 fold change
RRIRDRPPRLPRPRPRPDYPPRP | 0.00388
RRIRLRPPRLPRPRPRPRGLPRP | 0.146
RRIRYRPPRLPRPRPRPLPGPRP | -0.139
RRIRERPPRLPRPRPRPFMRPRP | 0.154
RRIRNRPPRLPRPRPRPKENPRP | -0.409
RRIRARPPRLPRPRPRPWQYPRP | -0.123
RRIRARPPRLPRPRPRPNCCPRP | 0.131
RRIRNRPPRLPRPRPRPIALPRP | -0.0133
RRIRWRPPRLPRPRPRPHPWPRP | 0.0859
RRIRCRPPRLPRPRPRPWMQPRP | -0.0437
RRIRIRPPRLPRPRPRPVMPPRP | -0.142
RRIRGRPPRLPRPRPRPGGFPRP | 0.819
RRIRERPPRLPRPRPRPPQIPRP | 0.15
RRIRSRPPRLPRPRPRPGQIPRP | -0.227
RRIRWRPPRLPRPRPRPMFWPRP | 0.324
RRIRARPPRLPRPRPRPTHRPRP | 0.46
RRIRLRPPRLPRPRPRPGLKPRP | 0.12
RRIRVRPPRLPRPRPRPTFEPRP | -0.106
RRIRVRPPRLPRPRPRPESSPRP | 0.00518
RRIRVRPPRLPRPRPRPHGWPRP | 0.492
RRIRPRPPRLPRPRPRPPFKPRP | 0.0437
RRIRVRPPRLPRPRPRPPRFPRP | 0.577
RRIRHRPPRLPRPRPRPTEVPRP | -0.0182
RRIRVRPPRLPRPRPRPEMWPRP | 0.0217
RRIRIRPPRLPRPRPRPEYSPRP | -0.119

Sequence | shrunken log2 fold change
RRIRYRPPRLPRPRPRPWQCPRP | 0.06
RRIRCRPPRLPRPRPRPCNCPRP | -0.278
RRIRMRPPRLPRPRPRPKPWPRP | 1.12
RRIRSRPPRLPRPRPRPFRNPRP | -0.225
RRIRYRPPRLPRPRPRPCGKPRP | -0.0542
RRIRLRPPRLPRPRPRPYITPRP | -0.716
RRIRLRPPRLPRPRPRPPCKPRP | 0.15
RRIRLRPPRLPRPRPRPVHDPRP | -0.458
RRIRLRPPRLPRPRPRPTACPRP | -0.0054
RRIRVRPPRLPRPRPRPMNWPRP | -0.474
RRIRIRPPRLPRPRPRPAKSPRP | -0.0109
RRIRSRPPRLPRPRPRPIRPPRP | -0.157
RRIRNRPPRLPRPRPRPNTWPRP | -0.382
RRIRSRPPRLPRPRPRPPAGPRP | 0.704
RRIRVRPPRLPRPRPRPQVMPRP | -0.112
RRIRHRPPRLPRPRPRPNKIPRP | -0.622
RRIRMRPPRLPRPRPRPGLAPRP | 1.51
RRIRIRPPRLPRPRPRPDWCPRP | -0.149
RRIRIRPPRLPRPRPRPQDKPRP | -0.855
RRIRERPPRLPRPRPRPNFTPRP | -0.111
RRIRGRPPRLPRPRPRPPVSPRP | 0.604
RRIRMRPPRLPRPRPRPDHNPRP | -0.00429
RRIRPRPPRLPRPRPRPAPGPRP | 0.645
RRIRYRPPRLPRPRPRPMFDPRP | -1.4
RRIRHRPPRLPRPRPRPQFSPRP | -0.139
